Tested on: IgG Ab to PEG in patient plasma
Assay: Indirect ELISA detection of APAs in patient plasma against Adagen-coated plates
Assay type: binding, human
Details: 5 replicates
Description: Informed signed consent was obtained from either the patient or from next of kin. (A) ELISA detection of APAs: Plasma samples diluted 1:21 in 1% BSA in PBS were tested by ELISA for IgG Ab to PEG, but using Adagen® (Sigma Tau Pharmaceuticals, Gaithersburg, Md.) rather than Krystexxa® as the antigen. (B) Surface fluoroimmunoassay against patient APAs: Polymer-coated surfaces were incubated with patient plasma samples diluted 1:3 in PBS for 1 h, and then washed 3 times with wash buffer (0.5% CHAPS in PBS). Next, the surfaces were exposed to a 1 μg/mL solution of Cy5-goat-anti-human IgG detection Ab (R & D Systems, Inc.) for 30 min. Surfaces were then rinsed again to remove any loosely-bound proteins, centrifuged at 4800 rpm for 15 s to wick away excess liquid, then allowed to dry under ambient conditions. Fluorescence imaging and analysis of all samples was performed using an Axon Genepix 4400 tabletop scanner and ImageJ Fiji as described above.
We performed an indirect ELISA on these patient plasma samples to quantify the level of IgG binding to Adagen (PEGylated adenosine deaminase).

B1: ADAGEN: a PEGylated adenosine deaminase for treating severe combined immunodeficiency disease (SCID) (conjugate)
chain: AQTPAFNKPKVELHVHLDGAIKPETILYYGRKRGIALPADTPEELQNIIGMDKPLSLPEFLAKFDYYMPAIAGCREAVKRIAYEFVEMKAKDGVVYVEVRYSPHLLANSKVEPIPWNQAEGDLTPDEVVSLVNQGLQEGERDFGVKVRSILCCMRHQPSWSSEVVELCKKYREQTVVAIDLAGDETIEGSSLFPGHVKAYAEAVKSGVHRTVHAGEVGSANVVKEAVDTLKTERLGHGYHTLEDATLYNRLRQENMHFEVCPWSSYLTGAWKPDTEHPVVRFKNDQVNYSLNTDDPLIFKSTLDTDYQMTKNEMGFTEEEFKRLNINAAKSSFLPEDEKKELLDLLYKAYGMPSPA
OD 405 nm Avg (Pt# 1, APA neg, sample 929-237-01): 0.149 | OD 405 nm Avg (Pt# 2, APA pos, sample 929-219-07): 0.714 | OD 405 nm Avg (Pt# 3, APA pos, sample 929-237-12): 1.243 | OD 405 nm Avg (Pt# 4, APA pos, sample 929-241-07): 1.679 | OD 405 nm Avg (Pt# 5, APA pos, sample 929-218-21): 3.059
